Assay results: US20030028904A1 (published 2003)

Target: T1, His-tagged Dock180 (UniProt Q14185 1-1865)
T1 construct: also called His-Dock180; CED-5/Dock180; not shown: His tag
Assay: co-immunoprecipitation, anti-FLAG IP and anti-Dock180 blot, COS-7 cells (FIG. 20B lane 9)
From the text: COS-7 cells were transfected with the indicated plasmids and the lysates were immunoprecipitated with anti-FLAG antibody and immunoblotted with anti-Dock180 (a mixture of N- and C-terminal antibodies). The same blot was stripped and reprobed with anti-FLAG to determine expression of the FLAG-tagged proteins. Immunoblotting of total lysates indicated the expression of Dock180 in the appropriate lanes. FIG. 20C is a photograph of a blot showing that ELMO1 and ELMO2 interact with Dock180. COS-7 cells were transfected as above with plasmids coding for FLAG-tagged ELMO1, ELMO2, the N-term or C-term versions of ELMO1 along with His-Dock180. After anti-FLAG immunoprecipitation, the coprecipitation of Dock180 was analyzed by immunoblotting. FIG. 20D is a photograph of a blot showing that CED-12 interacts with CED-5, but not Rac in a yeast two-hybrid assay. Interaction between Caenorhabditis elegans CED-12 and CED-5 as well as Rac wt and mutants were analyzed by yeast two-hybrid interaction as described in the Experimental procedures. Growth seen on selective plates is shown. FIG. 20E is a photograph of a blot showing that formation of a trimeric complex between ELMO1, CrkII and Dock180. […]
It was determined whether there might be a physical interaction between ELMO1 and Dock180, Rac or CrkII. […]

B1: FLAG-tagged human CED-6 (other, UniProt Q9UBP9 1-304, looked up)
chain: MNRAFSRKKDKTWMHTPEALSKHFIPYNAKFLGSTEVEQPKGTEVVRDAVRKLKFARHIKKSEGQKIPKVELQISIYGVKILEPKTKEVQHNCQLHRISFCADDKTDKRIFTFICKDSESNKHLCYVFDSEKCAEEITLTIGQAFDLAYRKFLESGGKDVETRKQIAGLQKRIQDLETENMELKNKVQDLENQLRITQVSAPPAGSMTPKSPSTDIFDMIPFSPISHQSSMPTRNGTQPPPVPSRSTEIKRDLFGAEPFDPFNCGAADFPPDIQSKLDEMQEGFKMGLTLEGTVFCLDPLDSRC
notes: not shown: FLAG tag
binding result: no binding
